From US11066655B2, “RNA polymerase, methods of purification and methods of use” (President and Fellows of Harvard College, priority 2013, dated 2021)
“Also recorded” adds a separate entry of the source.

How the values were obtained:
E. coli BL21 (DE3) = experiment: Growth curve of E. coli expressing Syn5 RNA polymerase from wild-type or modified vector; type: cell-based; settings: versus vector expressing wild-type Syn5 RNAP
Description: FIG. 17 graphically depicts a growth curve of E. coli BL21 (DE3) expressing Syn5 RNA polymerase from wild-type (WT, Syn5 RNAP-pET24a) or modified (Syn5 RNAP-NP-pET24a) vector.
(§1) The wild-type Syn5 RNA polymerase gene was modified as follows to improve expression in E. coli cells. Nucleotides in Syn5 RNA polymerase gene (No. 808-825) CCA TTG GGC ACC CGT AAG (SEQ ID NO:78) encoding Pro Leu Gly Thr Arg Lys (SEQ ID NO:79) were mutated to CCT CTT GGT ACG CGC AAG (SEQ ID NO:80) without changing the amino acids encoded, and the Syn5 promoter A TTG GGC ACC CGT AA (SEQ ID NO:81) within this region was removed (FIG. 16). Thus, when expressed in E. coli, the enzyme produced by the modified gene would not start transcription from its own gene, enabling the cells to grow much faster (FIG. 17) and yield at least 5 times more enzyme than cells expressing wild-type Syn5 RNAP.
E. coli BL21(DE3) was transformed with plasmid Syn5 RNAP-NP-pET24 encoding an N-terminal His-tagged Syn5 RNA polymerase. Cells were grown at 37° C. until they reached an OD of 1.2, at which point the temperature was reduced to 25° C. and IPTG was added at final concentration of 0.5 mM. Cells were grown an additional 4 hours before collection. The purification procedure used is described in “Zhu B, Tabor S, Richardson CC. (2014) Syn5 RNA polymerase synthesizes precise run-off RNA products. […]

[1] = Activity of Syn5 RNAP-NP (gel); type: biochemical
Description: FIG. 18 depicts gels showing expression and activity of Syn5 RNAP-NP.
as §1

[2] = tested on: template for a 2.7 knt RNA or human mitochondrial tRNA^ProUGG; experiment: 2′-F-dNTP incorporation by Syn5 RNA polymerase Y564F; type: biochemical
Description: FIGS. 28A, 28B, 28C and 28D depict gels showing a preference for 2′-F-dC/UTP over rC/UTP by Syn5 RNAP-Y564F.
Syn5 RNA polymerases containing Y564F and/or Y574F mutation were constructed using a known PCR mutagenesis method (see Higuchi et al., Nucleic Acids Res. 16:7351-7367 (1988) hereby incorporated by reference in its entirety), expressed and purified using known methods. The wild type gene background for the mutants was also modified, with the internal Syn5 promoter removed to reduce toxicity and increase the yield of the protein when expressed in E. coli. Purified proteins were analyzed by SDS-PAGE. The mutants were used to incorporate 2′-F-dNTPs as described below.
The reaction components were incubated at 37° C. for 4 hrs. 0.4 µl of the reaction mixture was loaded onto 2% agarose gel or 10% TBE gel and stained with ethidium bromide. Results are shown in FIG. 28A, FIG. 28B, FIG. 28C and FIG. 28D. The Y564F mutation does change the recognition of the 2′-group in the nucleotide substrates by Syn5 RNA polymerase. […] See FIG. 28A lane 4 vs 3; FIG. 28B lane 9-11 vs 6; FIG. 28C lane 11-13 vs 8).

| Molecule | toxicity to host cells (E. coli BL21 (DE3)) | enzymatic activity versus wild-type [1] | substrate preference 2′-F-dC/UTP versus rC/UTP ([2]; Mg buffer, 37° C.) | synthesis of long 2′-F RNA ([2]; low enzyme concentration) | transcript with all four 2′-F-dNMPs ([2]; template starting with C) | discrimination to 2′-F-dATP and 2′-F-dGTP ([2]; versus wild type) |
| --- | --- | --- | --- | --- | --- | --- |
| Syn5 RNAP-NP: Syn5 RNAP from modified gene (SEQ ID NO:83) with internal Syn5 promoter removed by silent mutations; same amino acids as wild-type (protein, Syn5 RNAP-NP, same amino acids as wild-type) MSFDLIARQLQRETEAAELARKRLQDARREANERSYASSNIESRKAIATFLDPIAQRIGERLFTLRRGTGAVDAAEVYKHLKNADHHHLALITMKTALDVLGKDPEPQIQQLTTAIGRNIQLELRLTYYAEENPELYKQASRFFHAGTGTRQKATVIKLKFNREGIEWDQWSRVTCHKVGQWLMLAMADVTGWIERATDRTSGGRKTKTRICYSREFLQHRDTILAAAEQLAFCQWPMLCPPIEWSNDHNGGYLSEQIRRVNPLIRKTGPLGTRKQGDIPLAMLNNLQGQAYKVNPEVLDIANHCYESNVTVGKFIRHAPLPVPPSPGEDCTEDQLTAYKRARREAEDFNAQISQKNWRTTEVMYVARKYADEASFWMPASFDYRGRVYFLNTALNPQGTDFDKALLYFAEEGPVNEWWLSFHVATTYGLDKETMVNRVQWARDNHELIDRIASDPVRHTEWHDADEPWCFLAACLEYKACVIDGTKQTSGLPIGIDATCSGLQHLAAMTRCGRTAALVNVTPTDKPADAYKTVAQASLKHLPKEQHEWITRKVTKRPVMCTPYGVTMSSARGYIRDQLVKDGHKEDLRSPGVLNGIVKAIFNEAIPEVIPGPVQVMAWLKRSAGQIIDRGDSTITWTTPSGFEVVQDLKKSKTYEVKTRIMGGARIKLQVGDGFTDEPDRDHHKSALAPNVVHSNDASLLHLTFAFWDKPFTVIHDCVLGRSCDMDQMGSDIRLHFAEMYKADVMQDWADQVGVELPVDLIKNTLDIDSVNQSLYFFS | less toxic to host cells | same enzymatic activity as the wild-type Syn5 RNAP; also recorded: comparable enzymatic activity | – | – | – | – |
| Syn5 RNA polymerase Y564F: Syn5 RNA polymerase Y564F mutant for the incorporation of 2′-F-dNTPs (protein, Amino acid sequence of a cyanophage Syn5 RNAP, Syn5 RNA polymerase Y564F mutant for the incorporation of 2′-F-dNTPs) MSFDLIARQLQRETEAAELARKRLQDARREANERSYASSNIESRKAIATFLDPIAQRIGERLFTLRRGTGAVDAAEVYKHLKNADHHHLALITMKTALDVLGKDPEPQIQQLTTAIGRNIQLELRLTYYAEENPELYKQASRFFHAGTGTRQKATVIKLKFNREGIEWDQWSRVTCHKVGQWLMLAMADVTGWIERATDRTSGGRKTKTRICYSREFLQHRDTILAAAEQLAFCQWPMLCPPIEWSNDHNGGYLSEQIRRVNPLIRKTGPLGTRKQGDIPLAMLNNLQGQAYKVNPEVLDIANHCYESNVTVGKFIRHAPLPVPPSPGEDCTEDQLTAYKRARREAEDFNAQISQKNWRTTEVMYVARKYADEASFWMPASFDYRGRVYFLNTALNPQGTDFDKALLYFAEEGPVNEWWLSFHVATTYGLDKETMVNRVQWARDNHELIDRIASDPVRHTEWHDADEPWCFLAACLEYKACVIDGTKQTSGLPIGIDATCSGLQHLAAMTRCGRTAALVNVTPTDKPADAYKTVAQASLKHLPKEQHEWITRKVTKRPVMCTPFGVTMSSARGYIRDQLVKDGHKEDLRSPGVLNGIVKAIFNEAIPEVIPGPVQVMAWLKRSAGQIIDRGDSTITWTTPSGFEVVQDLKKSKTYEVKTRIMGGARIKLQVGDGFTDEPDRDHHKSALAPNVVHSNDASLLHLTFAFWDKPFTVIHDCVLGRSCDMDQMGSDIRLHFAEMYKADVMQDWADQVGVELPVDLIKNTLDIDSVNQSLYFFS | – | – | prefers 2′-F-dCTP and 2′-F-dUTP to canonical rCTP and rUTP | stably synthesizes long RNA containing 2′-F-dCMP and 2′-F-dUMP | Full-length transcript including all four 2′-F-dNMPs was synthesized | reduced |
